{"source": "paper PMC3667765", "origin": "cited, not measured here", "target": "E-cadherin (Homo sapiens) (UniProt P12830)", "sequence (P12830 155-709)": "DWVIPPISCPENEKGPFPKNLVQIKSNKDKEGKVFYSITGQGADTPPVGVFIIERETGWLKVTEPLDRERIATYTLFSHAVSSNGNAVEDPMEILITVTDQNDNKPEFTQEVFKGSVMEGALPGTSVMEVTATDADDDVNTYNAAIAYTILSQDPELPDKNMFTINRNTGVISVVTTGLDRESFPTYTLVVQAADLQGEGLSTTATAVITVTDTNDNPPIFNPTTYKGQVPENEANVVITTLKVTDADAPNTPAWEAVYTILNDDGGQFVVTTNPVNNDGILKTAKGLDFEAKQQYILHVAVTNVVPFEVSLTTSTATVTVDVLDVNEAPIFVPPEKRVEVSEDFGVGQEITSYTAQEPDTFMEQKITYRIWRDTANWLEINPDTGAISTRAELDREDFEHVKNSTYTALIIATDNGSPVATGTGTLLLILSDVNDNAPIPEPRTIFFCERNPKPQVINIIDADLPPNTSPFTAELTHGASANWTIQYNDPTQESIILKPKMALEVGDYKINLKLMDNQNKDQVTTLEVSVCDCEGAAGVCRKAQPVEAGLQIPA", "data": [{"substance": "Internalin A (from UniProt P0DJM0)", "values": [{"measurement": "Kd", "result": 8, "unit": "µM"}]}]}
